Data taken from publication PMC3989650.

biological target: T1, mTLR9-cECD (C-terminal proteolytic fragment of TLR9 ectodomain) (Mus musculus, UniProt Q9EQU3 474-824); assay: fluorescence anisotropy; 20 mM MES pH 5.6, 100 mM NaCl, 2 mM beta-mercaptoethanol, 25 C, 0.2 uM labelled R:D60, protein 10 nM-3.0 uM, 10 min equilibration
T1 sequence: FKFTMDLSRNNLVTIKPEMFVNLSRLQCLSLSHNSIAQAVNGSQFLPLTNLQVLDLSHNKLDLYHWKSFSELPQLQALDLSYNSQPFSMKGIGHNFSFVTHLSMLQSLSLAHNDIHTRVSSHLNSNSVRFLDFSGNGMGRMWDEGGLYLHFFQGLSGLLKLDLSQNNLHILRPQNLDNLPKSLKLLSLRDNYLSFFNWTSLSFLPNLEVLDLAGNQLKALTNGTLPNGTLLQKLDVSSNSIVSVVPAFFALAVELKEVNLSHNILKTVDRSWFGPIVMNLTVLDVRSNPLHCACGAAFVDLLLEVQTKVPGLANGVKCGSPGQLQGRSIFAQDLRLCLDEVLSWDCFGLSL

| Binder | Kd |
| --- | --- |
| R:D60 (Cy3) (DNA:RNA) RNA: GUGUGUGUGUGUGUGUGUGUGUGUGUGUGUGUGUGUGUGUGUGUGUGUGUGUGUGUGUGU ?: ACACACACACACACACACACACACACACACACACACACACACACACACACACACACACAC | 27.2 nM |
| Cy3-ssRNA60 (ssRNA) RNA: GUGUGUGUGUGUGUGUGUGUGUGUGUGUGUGUGUGUGUGUGUGUGUGUGUGUGUGUGUGU | 1080 nM |
| Cy5-ssDNA60 (ssDNA) DNA: ACACACACACACACACACACACACACACACACACACACACACACACACACACACACACAC | 142 nM |
